Legend:
[1] = molecular target: T1, hIL-4Rα on cells (human, UniProt P24394 26-825); test: cell-based or functional assay
T1 sequence: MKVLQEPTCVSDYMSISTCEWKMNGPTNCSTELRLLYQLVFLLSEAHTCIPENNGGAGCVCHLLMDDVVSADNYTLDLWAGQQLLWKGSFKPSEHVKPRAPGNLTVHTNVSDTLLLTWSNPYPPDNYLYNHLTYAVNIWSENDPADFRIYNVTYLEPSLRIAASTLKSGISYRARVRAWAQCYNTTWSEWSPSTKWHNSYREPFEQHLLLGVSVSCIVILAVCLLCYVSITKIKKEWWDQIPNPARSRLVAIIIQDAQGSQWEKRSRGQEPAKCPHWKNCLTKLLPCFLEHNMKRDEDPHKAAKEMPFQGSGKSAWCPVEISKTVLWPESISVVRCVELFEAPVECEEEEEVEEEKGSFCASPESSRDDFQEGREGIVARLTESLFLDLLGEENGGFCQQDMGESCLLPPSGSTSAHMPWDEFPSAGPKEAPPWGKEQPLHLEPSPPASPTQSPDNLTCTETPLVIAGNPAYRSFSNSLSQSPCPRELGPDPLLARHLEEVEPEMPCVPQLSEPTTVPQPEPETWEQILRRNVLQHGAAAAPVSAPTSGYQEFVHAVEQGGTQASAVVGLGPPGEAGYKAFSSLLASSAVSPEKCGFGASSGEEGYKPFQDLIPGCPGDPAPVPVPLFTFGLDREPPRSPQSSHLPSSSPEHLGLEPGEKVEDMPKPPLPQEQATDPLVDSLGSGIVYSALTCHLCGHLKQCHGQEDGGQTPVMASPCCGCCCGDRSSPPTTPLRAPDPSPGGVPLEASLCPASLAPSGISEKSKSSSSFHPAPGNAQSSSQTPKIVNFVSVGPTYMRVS

[2] = molecular target: T1, hIL-4Rα on cells; test: FACS on HEK293 cells, competitor biotin-hIL-4
Protocol: (§1) Briefly, HEK293 previously transduced to stably express both hIL-13Rα and hIL-4Rα were cultured and harvested. Cells were seeded at 200,000 cells in 100 uL per well. Cells were washed and the supernatant discarded. […] The cells were stained in this mixture at 4° C. for 1 hour. […] Cells were incubated 4° C. for 1 hour, protected from light. Cells were then washed and the MFI of cells in each well were recorded by FACS using a BD FACSCanto II. Subsequent data were analyzed using GraphPad Prism.
(§2) The values reflect absolute IC₅₀ measurements.

[3] = molecular target: T1, hIL-4Rα on cells; test: FACS on HEK293 cells, competitor biotin-hIL-13
Protocol: as §1, §2

[4] = molecular target: T1, hIL-4Rα on cells; test: cell-based or functional assay; remark: listed apart in the source
[5] = molecular target: T1, hIL-4Rα on cells; test: cell-based or functional assay; remark: listed apart in the source

B1: Construct 13 (mAb422) with IgG1 YTE LALA heavy chain constant region (antibody, V domains shown)
VH: EVQLVESGGGLEQPGGSLRLSCAGSGFTFRDFAMTWVRQAPGKGLEWVSSVSGSGGNTYYADSVKGRFTISRDNSKNTLYLQMNSLRAEDTAVYYCAKDRLSVTVRPRYYGLDVWGQGTTVTVSS
VL: DIVMTQSPLSLPVTPGEPASISCRSSQSVLYSIGYNYVDWYLQKSGQSPQLLIYLGNKRASGVPDRFSGSGSGTDFTLKISRVEAEDVGFYYCMQSLTSPYTFGQGTKLEIK
[1]
  Inhibition of IL-4 induced TARC IC50: 0.179 nM
  Inhibition of IL-13 induced TARC IC50: 0.261 nM
[2]
  IC50: 0.238 nM
[3]
  IC50: 0.235 nM
[4]
  Inhibition of IL-4 induced pSTAT6 IC50: 0.185 nM
  Inhibition of IL-13 induced pSTAT6 IC50: 0.612 nM
[5]
  Inhibition of IL-4 induced TF-1 Proliferation IC50: 0.038 nM
  Inhibition of IL-13 induced TF-1 Proliferation IC50: 0.119 nM

B2: Construct 15 (mAb423) with IgG1 YTE LALA heavy chain constant region (antibody, V domains shown)
VH: EVQLVESGGGLEQPGGSLRLSCAGSGFTFRDFAMTWVRQAPGKGLEWVSSISGSGGNIYYADSVKGRFTISRDNSKNTLYLQMNSLRAEDTAVYYCAKDRLSKTIRPRYYGLDVWGQGTTVTVSS
VL: DIVMTQSPLSLPVTPGEPASISCTASQSLLYSIGYNYVDWYLQKSGQSPQLLIYLGNKRASGVPDRFSGSGSGTDFTLKISRVEAEDVGFYYCMQSLTSPYTFGQGTKLEIK
[1]
  Inhibition of IL-4 induced TARC IC50: 0.127 nM
  Inhibition of IL-13 induced TARC IC50: 0.212 nM
[2]
  IC50: 0.23 nM
[3]
  IC50: 0.204 nM
[4]
  Inhibition of IL-4 induced pSTAT6 IC50: 0.122 nM
  Inhibition of IL-13 induced pSTAT6 IC50: 0.599 nM
[5]
  Inhibition of IL-4 induced TF-1 Proliferation IC50: 0.028 nM
  Inhibition of IL-13 induced TF-1 Proliferation IC50: 0.117 nM

B3: Construct 24 (mAb432) with IgG1 YTE LALA heavy chain constant region (antibody, V domains shown)
VH: EVQLVESGGGLEQPGGSLRLSCAGSGFTFRDFAMTWVRQAPGKGLEWVSSISGSGGNIYYADSVKGRFTISRDNSKNTLYLQMNSLRAEDTAVYYCAKDRLSIAVRPRYYGLDVWGQGTTVTVSS
VL: DIVMTQSPLSLPVTPGEPASISCTASQSLLYSIGKNYVDWYLQKSGQSPQLLIYLGNNRATGVPDRFSGSGSGTDFTLKISRVEAEDVGFYYCMQSLTSPYTFGQGTKLEIK
[1]
  Inhibition of IL-4 induced TARC IC50: 0.222 nM
  Inhibition of IL-13 induced TARC IC50: 0.361 nM
[2]
  IC50: 0.234 nM
[3]
  IC50: 0.234 nM
[4]
  Inhibition of IL-4 induced pSTAT6 IC50: 0.269 nM
  Inhibition of IL-13 induced pSTAT6 IC50: 1.09 nM
[5]
  Inhibition of IL-4 induced TF-1 Proliferation IC50: 0.052 nM
  Inhibition of IL-13 induced TF-1 Proliferation IC50: 0.166 nM

B4: Construct 31 (mAb443) with IgG1 YTE LALA heavy chain constant region (antibody, V domains shown)
VH: EVQLVESGGGLEQPGGSLRLSCAGSGFTFRDFAMTWVRQAPGKGLEWVSSISGSGGNIYYADSVKGRFTISRDNSKNTLYLQMNSLRAEDTAVYYCAKDRLSVTVRPRYYGLDVWGQGTTVTVSS
VL: DIVMTQSPLSLPVTPGEPASISCRSSQSLLYSNGYNYLDWYLQKSGQSPQLLIYLGSNRASGVPDRFSGSGSGTDFTLKISRVEAEDVGFYYCMQALQAPYTFGQGTKLEIK
[1]
  Inhibition of IL-4 induced TARC IC50: 0.228 nM
  Inhibition of IL-13 induced TARC IC50: 0.456 nM
[2]
  IC50: 0.279 nM
[3]
  IC50: 0.209 nM
[4]
  Inhibition of IL-4 induced pSTAT6 IC50: 0.452 nM
  Inhibition of IL-13 induced pSTAT6 IC50: 0.916 nM
[5]
  Inhibition of IL-4 induced TF-1 Proliferation IC50: 0.058 nM
  Inhibition of IL-13 induced TF-1 Proliferation IC50: 0.175 nM

From patent US20260193366A1 (APOGEE THERAPEUTICS, published 2026)
